Results taken from publication PMC9719028 (Life Science Alliance, 2022).

Key:
[1] = target: T1, DIRC2-AA (Homo sapiens, UniProt Q96SL1, L14A/L15A); assay: inhibition of specific [3H]pyridoxine uptake in transfected COS-7 cells; assay type: cell-based; details: 10 nM [3H]pyridoxine, 1 mM test compound, pH 5.0, 37 °C, 1 min
T1 construct: gene SLC49A4; untagged DIRC2-AA in pCI-neo, N-terminal dileucine motif (E10RQPL14L15) replaced by dialanine, redirected to plasma membrane of transiently transfected COS-7 cells; FLAG-tagged form mostly present as cleaved product
T1 sequence (Q96SL1 1-478 L14A/L15A): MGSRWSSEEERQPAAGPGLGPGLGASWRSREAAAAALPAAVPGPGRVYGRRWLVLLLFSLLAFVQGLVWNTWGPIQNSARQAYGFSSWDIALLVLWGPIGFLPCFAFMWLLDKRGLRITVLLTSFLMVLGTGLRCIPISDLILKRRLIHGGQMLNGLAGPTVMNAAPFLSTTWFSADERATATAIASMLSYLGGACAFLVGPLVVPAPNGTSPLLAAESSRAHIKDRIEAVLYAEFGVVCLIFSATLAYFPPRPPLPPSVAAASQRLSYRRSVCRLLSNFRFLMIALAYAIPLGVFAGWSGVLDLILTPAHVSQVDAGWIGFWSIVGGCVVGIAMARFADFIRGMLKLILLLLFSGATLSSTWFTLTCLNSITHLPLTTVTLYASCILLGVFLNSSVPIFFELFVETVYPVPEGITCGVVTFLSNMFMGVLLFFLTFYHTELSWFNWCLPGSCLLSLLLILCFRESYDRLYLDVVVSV

[2] = substrate: Cc1ncc(CO)c(CO)c1O; assay: cells, lysate or membranes; details: pH 5.0, 37 °C, 1 min, labelled compound

`Cc1ncc(CO)c(C)c1O` [4-deoxypyridoxine] was tested, and the “% inhibition at 1 mM” value [1] was “only 4-deoxypyridoxine other than pyridoxine significantly inhibited the DIRC2-AA–specific uptake”.

B1: EGFP-THTR2 (Homo sapiens) (protein)
chain: MDCYRTSLSSSWIYPTVILCLFGFFSMMRPSEPFLIPYLSGPDKNLTSAEITNEIFPVWTYSYLVLLLPVFVLTDYVRYKPVIILQGISFIITWLLLLFGQGVKTMQVVEFFYGMVTAAEVAYYAYIYSVVSPEHYQRVSGYCRSVTLAAYTAGSVLAQLLVSLANMSYFYLNVISLASVSVAFLFSLFLPMPKKSMFFHAKPSREIKKSSSVNPVLEETHEGEAPGCEEQKPTSEILSTSGKLNKGQLNSLKPSNVTVDVFVQWFQDLKECYSSKRLFYWSLWWAFATAGFNQVLNYVQILWDYKAPSQDSSIYNGAVEAIATFGGAVAAFAVGYVKVNWDLLGELALVVFSVVNAGSLFLMHYTANIWACYAGYLIFKSSYMLLITIAVFQIAVNLNVERYALVFGINTFIALVIQTIMTVIVVDQRGLNLPVSIQFLVYGSYFAVIAGIFLMRSMYITYSTKSQKDVQSPAPSENPDVSHPEEESNIIMSTKL
Work on B1 yielded a Km ([2]; Hanks' solution with MES) of 20 ± 1 µM.

B2: DIRC2-AA (Homo sapiens; L14A/L15A) (protein)
chain: T1 sequence (Q96SL1 1-478 L14A/L15A)
With B2 the Km ([2]; Hanks' solution with MES (NaCl present), H+-coupled uptake) was 522 ± 63 µM.

B3: EGFP-DIRC2-AA (Homo sapiens; L14A/L15A) (protein)
chain: T1 sequence (Q96SL1 1-478 L14A/L15A)
B3 gave a Km ([2]; Hanks' solution with MES (NaCl present), H+-coupled uptake, caption names it FLAG-DIRC2-AA once, text says EGFP-DIRC2-AA) of 476 ± 19 µM.
